According to paper PMC5620733, “Aptamer-Based Single-Step Assay by the Fluorescence Enhancement on Electroless Plated Nano Au Substrate”:

Target: thrombin (UniProt P00734;P00734 328-363;364-622)
Experiment: fluorescence decrease on chitosan-coated Au nanostructure (aptamer release); 10 ug/mL thrombin, 15 min; smaller signal change than 15mer, ascribed to retention on chitosan; 20 mM Tris-HCl pH 7.4, 20 mM MgCl2; chitosan-coated (1000 Da) Au nanostructure blocked with 1% BSA; 15 min; temperature not stated

B1: TBA 21mer (5'-extended) (ssDNA)
DNA: CACTGTGGTTGGTGTGGTTGG
binding result: binds
